Here are results for 9 molecules from patent publication US20220306762A1.

Experiment [1] concerns the target His-tagged cynomolgus monkey CD38 (ACRO Biosystems, CD8-05223 [sic]) (cynomolgus monkey) (UniProt Q5VAN0). Description: ELISA, 1 ug/ml scFv-Fc, coated His-tagged CD38. On the technique in general: ELISA stands for enzyme-linked immunosorbent assay.
In experiment [2] the target is His-tagged human CD38 (ACRO Biosystems CD8-H5224) (human) (UniProt P28907). In words: ELISA, 1 ug/ml scFv-Fc, coated His-tagged CD38.
For experiment [3], the target named is His-tagged mouse CD38 (ACRO Biosystems CD8-M5223) (mouse) (UniProt P56528). Description: ELISA, 1 ug/ml scFv-Fc, coated His-tagged CD38.
For experiment [4], the target named is Human CD38 on transiently transfected Expi293 cells (Origene SC321273) (human) (UniProt P28907). Description: flow cytometry, 10 ug/ml scFv-Fc, transfected Expi293 cells.
Experiment [5] has as its target Murine CD38 on transiently transfected Expi293 cells (Origene MC208001) (murine) (UniProt P56528). The description is as above.

B1: 40769p2.1.E8 scFv-Fc (scFv, part only; not given: Linker, domain order, Fc, V domains shown, not shown: another chain or arm of the molecule; a dimerising Fc or GST; small tags and cut ends)
VH: EVQLLESGGGLVQPGGSLRLSCTGFGFTFTDARMSWVRQAPGKGLEWVADISSYGDNTYYADSVKGRFTISRDNSANTLYVQMNSLRAEDTAVYYCAKRMEREVMTIKLDYHAMDVWGQGTTVTVSS
VL: QSVLTQTPSVSGTPGQRVTISCSGVFNIRNYVSWYQQLPGTAPKLLIFKDDQRPSGVPDRFSGSRSGTSASLAISGLQSEDEADYYCAAWDIFLNVWVFGGGTKLTVL
For B1, the results for the ELISA signal in experiment [1], in experiment [2] and in experiment [3] were 2.16, 1.79 and 0.046, respectively. Also, the values for the FACS percent gated in experiment [4] and in experiment [5] were 75.7% and 1.99%, respectively.

B2: 40769p2.1.E1 scFv-Fc (scFv, part only; not given: Linker, domain order, Fc, V domains shown, not shown: another chain or arm of the molecule; a dimerising Fc or GST; small tags and cut ends)
VH: EVQLLESGGGLIQPGGSLRLSCTASGFDFSSYGMHWVRQAPGKGLEWVAIISDSGGTTYYGDSVKGRFTISRDNSKSTLYLQMNSLRAEDTALYYCASYIMDVWGQGTTVTVSS
VL: QSVLTQPPSASGTPEQRVTISCSGSNSNVGDNAVYWYQQLPGTAPKLLFYGTNRRPSGVPDRFSGSKSGTSASLAISGLQSEDEADYYCAAWDDSLNAWVFGGGTKLTVL
For B2, the ELISA signal was determined as 2.04 in experiment [1], 2.04 in experiment [2] and 1.53 in experiment [3]. In addition, the FACS percent gated turned out to be 75.4% in experiment [4] and 23.7% in experiment [5].

B3: 40769p2.1.H12 scFv-Fc (scFv, part only; not given: Linker, domain order, Fc, V domains shown, not shown: another chain or arm of the molecule; a dimerising Fc or GST; small tags and cut ends)
VH: EVQLLESGGGLIQPGGSLRLSCTASGFDFSSYGMHWVRQAPGKGLEWVGIISDSGGTTYYADSVKGRFTISRDNSKNTLYLQMNSLRAEDTALYYCASYIMDVWGQGITVTVSS
VL: QSVLTQPPSASGTPGQRVTISCSGSNSNVGVNSVYWYQQLPGTAPKLLIYGSGRRPSGVPDRFSVSKSGTSASLAISGLQSEDEADYYCAAWDDGLNAWVFGGGTKLTVL
On to B3, for which the ELISA signal in experiment [1] stood at 2.29; in experiment [2], 2.01; in experiment [3], 1.37. Further, the figures for the FACS percent gated in experiment [4] and in experiment [5] were 77.1% and 22.9%, respectively.

B4: 40769p2.2.D3 scFv-Fc (scFv, V domains shown)
VH: EVQLLESGGGLIQPGGSLRLSCTASGFDFSSYGMHWVRQAPGKGLEWVGIISDSGGTTYYADSVKGRFTISRDNSKNTLYLQMNSLRAEDTALYYCASYIMDVWGQGITVTVSS
VL: QSVLTQPPSASGTPGQRVTISCSGSNSNVGVNSVYWYQQLPGTAPKLLIYGSGRRPSGVPDRFSVSKSGTSASLAISGLQSEDEADYYCAAWDGGLNAWVFGGGTKLTVL
Take B4: the ELISA signal in experiment [3] was found to be 0.044.

B5: 40769p2.1.G4 scFv-Fc (scFv, part only; not given: Linker, domain order, Fc, V domains shown, not shown: another chain or arm of the molecule; a dimerising Fc or GST; small tags and cut ends)
VH: EVQLLESGGGLVQPGGSLRLSCAASGFTFTSHDMNWVRQAPGKGLEWVSTITTGGNTYYADSVKGRFTISRDNSKNTLYLQMTSLRAEDTAVYYCTKHYSMDVWGQGTTVTVSS
VL: QSVLTQPPSASGTPGQRVTISCSGSTSNVVFNAVYWYQQLPGTAPKLLFYGKSQRPSGVPDRFSGSKSGTSASLAISGLQSEDEADYYCAAWDDTLNGWVFGGGTKLTVL
For B5, the results for the ELISA signal in experiment [1], in experiment [2] and in experiment [3] were 2.31, 1.81 and 2.1, respectively. Further, the FACS percent gated in experiment [4] stood at 77%; in experiment [5], 42.4%.

B6: 40769p2.1.E5 scFv-Fc (scFv, part only; not given: Linker, domain order, Fc, V domains shown, not shown: another chain or arm of the molecule; a dimerising Fc or GST; small tags and cut ends)
VH: EVQLLESGGGLVQPGGSLRLSCTASAHIFKYNWMSWVRQAPGKGLEWVSSINSDGTITYYTDSVKGRFTISRDNSKNTLYLQMNSLRAEDTAVYYCAKDNWNDYAIDVWGQGTTVTVSS
VL: QSVLTQPPSASGTPGQRVTISCSGSRSDIRNNYVSWYQQLPGTAPKLLIYSNGQRPSGVPDRFSGSKSGTSASLAISGLQSEDEADYYCAIWDDSLNAWVFGGGTKLTVL
Consider B6, for which the ELISA signal in experiment [1] amounted to 2.1; in experiment [2], 1.96; in experiment [3], 0.045. The FACS percent gated in experiment [4] was determined as 76.3%; in experiment [5], 3.13%.

B7: 40769p2.1.C1 scFv-Fc (scFv, part only; not given: Linker, domain order, Fc, V domains shown, not shown: another chain or arm of the molecule; a dimerising Fc or GST; small tags and cut ends)
VH: EVQLLESGGGLVQPGGSLRLSCAASGFSFSDYWMNWVRQAPGKGLEWVSTISSGGNMIYYADSVKGRFTISRDNSKNTLYLRMNSLRAEDTAVYYCAKDNWNDYYGMDVWGQGTTVTVSS
VL: QSVLTQPPSASGTPGQRVTISCSGSSSNIRDNYVYWYQQVPGTAPKLLIYKDDQRPSGVPDRFSGSKSGSSASLAISGLQSEDEADYYCATWDGSLNARVFGGGTKLTVL
For B7, the ELISA signal in experiment [1] was determined as 2.35; in experiment [2] it was 2.42; in experiment [3], 0.048. In addition, in experiment [4], the FACS percent gated came out at 74.9%.

B8: 40769p2.2.H4 scFv-Fc (scFv, part only; not given: Linker, domain order, Fc, V domains shown, not shown: another chain or arm of the molecule; a dimerising Fc or GST; small tags and cut ends)
VH: EVQLLESGGGLVQPGGSLRLSCAASGFDFSSYWMNWVRQAPGKGLEWVSTISSGGSIIYYADSVKGQFTISRDNSKNTLYLQMNSLRAEDTAVYYCAKDNWNDYYGMDVWGQGTTVTVSS
VL: QSVPTQPPSASGTPGQRVTISCSGSSSNIRDNYVYWYQQVPGTAPKLLIYKDDQRPSGVPDRFSGSKSGTSASLAISGLQSEDEADYYCATWDGSLNARVFGGGTKLTVL
Turning to B8, the results for the ELISA signal in experiment [1], in experiment [2] and in experiment [3] were 1.47, 1.67 and 0.045, respectively. Also, the results for the FACS percent gated in experiment [4] and in experiment [5] were 92.5% and 1.43%, respectively.

B9: 40769p2.2.G3 scFv-Fc (scFv, part only; not given: Linker, domain order, Fc, V domains shown, not shown: another chain or arm of the molecule; a dimerising Fc or GST; small tags and cut ends)
VH: EVQLLESGGGLVQPGGSLRLSCTASGITFSRFNMFWVRQAPGKGLEFVASIRDDGSWTYYADSVKGQFTISRDNSKNTLYLQMNSLRAEDTAVYYCAKDYSSKDFIYHYVMDVWGQGTTVTVSS
VL: QSVLTQPPSASGTPGQRVTISCSGRNSNIGNNVVNWYQQLPGTAPKLLIYRNQERPSGVPDRFSGSKSGTSASLAISGLQSEDEADYYCASWDDSLNAWVFGRGTKLTVL
As to B9, the ELISA signal in experiment [1] amounted to 1.46; in experiment [2] it was 1.7; in experiment [3], 0.044. Moreover, the figures for the FACS percent gated in experiment [4] and in experiment [5] were 92.1% and 1.46%, respectively.
